The values below come from publication PMC4653696 (The Journal of Biological Chemistry, 2015).

The target of data set [1] is T1, Shs1(E344C)-capped, otherwise Cys-less septin hetero-octamer (Shs1-Cdc12-Cdc3-Cdc10-Cdc10-Cdc3-Cdc12-Shs1) (S. cerevisiae, UniProt Q07657 1-551; P32468 1-407; P32457 1-520; P25342 1-322, C29V | C148S | E344C | C40A | C278S | C124V | C253V | C279V | C266S, Alexa Fluor 555 maleimide (donor) or Alexa Fluor 647 maleimide (acceptor) on C344 (E344C)).
T1 construct: Cdc12, S. cerevisiae mitotic septin, Cys-less variant; Cdc3, S. cerevisiae mitotic septin, Cys-less variant; Cdc10, S. cerevisiae mitotic septin, Cys-less variant; Donor- and acceptor-labelled preparations are written as this one molecule; also called Shs1^AF555; Shs1^AF647; source: E. coli NiCo21 (DE3), subunits co-expressed, purified (IMAC, chitin-agarose flow-through, SEC), maleimide …
The data set can be described thus: FRET or BRET; as a1 but 50 nM donor (AF555)-labelled octamers; 45 mM KCl, 50 mM Tris-HCl pH 8.0; room temperature; apparent Kd. The settings on record: both partners purified. Background: In BRET a luciferase serves as donor, and the signal depends on an acceptor being close.

Data set [2] concerns the molecule itself. Described as above.
Data set [3] concerns the molecule itself. The data set can be described thus: FRET or BRET; standard titrations of donor-labelled rods with acceptor-labelled rods in buffers of increasing KCl concentration (corrected FRET method); result at high ionic strength; apparent Kd.
Data set [4] has as its target T1, Shs1(E344C)-capped, otherwise Cys-less …. The data set can be described thus: FRET or BRET; 25 nM donor (AF555)-labelled octamers titrated with acceptor (AF647)-labelled octamers, serial dilutions from 100 nM; 45 mM KCl, 50 mM Tris-HCl pH 8.0; room temperature, 1 h equilibration; triplicate; PCA and curve fit; apparent Kd of end-to-end association of rods. Particulars: both partners purified.

Data set [5] concerns the molecule itself. Described as above.
Data set [6] has as its target T1, Shs1(E344C)-capped, otherwise Cys-less …. Description: FRET or BRET; equimolar (1:1) donor- and acceptor-labelled octamers while varying ionic strength (KCl); PCA; EC50 of ionic strength and apparent Hill coefficient. Particulars: both partners purified.
Data set [7] concerns the molecule itself. The data set is described as above.
For data set [8], the target named is T1, Shs1(E344C)-capped, otherwise Cys-less …. The data set can be described thus: FRET or BRET; as a1 but 35 nM donor (AF555)-labelled octamers; 45 mM KCl, 50 mM Tris-HCl pH 8.0; room temperature; apparent Kd. The settings on record: both partners purified.
Data set [9] concerns the molecule itself. Described as above.
The target in data set [10] is T2, Shs1(Δ2–18/Δα0 E344C)-capped, otherwise Cys-less septin hetero-octamer (S. cerevisiae, UniProt Q07657 1-551; P32468 1-407; P32457 1-520; P25342 1-322, Δ2–18 | C29V | C148S | E344C | C40A | C278S | C124V | C253V | C279V | C266S, Alexa Fluor 555 maleimide (donor) on C344 (E344C)).
T2 construct: Cdc12, S. cerevisiae mitotic septin, Cys-less variant; Cdc3, S. cerevisiae mitotic septin, Cys-less variant; Cdc10, S. cerevisiae mitotic septin, Cys-less variant; also called Shs1 Δα0^AF555; Shs1(Δα0) complexes; source: E. coli NiCo21 (DE3), subunits co-expressed, purified (IMAC, chitin-agarose flow-through, SEC), maleimide dye-labelled; not shown: His6, N-terminal, kept; copies: 2 + 2 + 2 + 2
The data set can be described thus: FRET or BRET; 25 nM donor (AF555)-labelled octamers titrated with acceptor (AF647)-labelled octamers, serial dilutions from 100 nM; 45 mM KCl, 50 mM Tris-HCl pH 8.0; room temperature, 1 h equilibration; triplicate; PCA and curve fit; apparent Kd of end-to-end association of rods. The settings on record: both partners purified.

Some results are limits rather than exact numbers.

T1 sequence (Q07657 whole entry C29V/C148S/E344C, one chain of several): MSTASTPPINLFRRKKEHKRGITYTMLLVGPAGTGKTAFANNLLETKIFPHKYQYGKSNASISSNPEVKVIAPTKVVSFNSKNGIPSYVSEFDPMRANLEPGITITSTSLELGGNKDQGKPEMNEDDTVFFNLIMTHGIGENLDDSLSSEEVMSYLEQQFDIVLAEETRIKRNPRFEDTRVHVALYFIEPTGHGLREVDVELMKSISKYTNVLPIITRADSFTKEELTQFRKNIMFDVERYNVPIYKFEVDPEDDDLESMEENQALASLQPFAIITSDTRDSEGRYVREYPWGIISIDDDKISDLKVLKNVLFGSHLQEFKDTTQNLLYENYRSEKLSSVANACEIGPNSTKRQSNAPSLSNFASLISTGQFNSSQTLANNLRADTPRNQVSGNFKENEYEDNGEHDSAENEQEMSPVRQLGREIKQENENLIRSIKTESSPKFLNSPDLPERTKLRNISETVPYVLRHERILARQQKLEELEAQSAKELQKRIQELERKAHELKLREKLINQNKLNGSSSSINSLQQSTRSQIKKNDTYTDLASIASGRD
T2 sequence (Q07657 other isoform, or with tags, fused parts or gaps with the stated changes): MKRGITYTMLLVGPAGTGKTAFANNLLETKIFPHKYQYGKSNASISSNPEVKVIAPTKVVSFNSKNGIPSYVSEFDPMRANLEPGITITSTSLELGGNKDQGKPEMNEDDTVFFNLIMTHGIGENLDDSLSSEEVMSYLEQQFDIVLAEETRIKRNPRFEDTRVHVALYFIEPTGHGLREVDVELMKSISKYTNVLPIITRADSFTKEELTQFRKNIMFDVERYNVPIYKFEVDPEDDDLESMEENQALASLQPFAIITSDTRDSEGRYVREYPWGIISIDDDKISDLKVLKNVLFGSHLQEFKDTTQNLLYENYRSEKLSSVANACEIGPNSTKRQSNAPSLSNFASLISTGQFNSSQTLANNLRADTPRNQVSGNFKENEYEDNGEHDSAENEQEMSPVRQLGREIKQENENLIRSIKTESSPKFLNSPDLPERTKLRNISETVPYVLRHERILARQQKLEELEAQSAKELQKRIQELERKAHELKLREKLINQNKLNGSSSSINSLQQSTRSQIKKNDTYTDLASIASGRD

B1: Cdc11(E294C)-capped, otherwise Cys-less septin hetero-octamer (Cdc11-Cdc12-Cdc3-Cdc10-Cdc10-Cdc3-Cdc12-Cdc11) (complex, S. cerevisiae)
chain 1: MSGIIDASSALRKRKHLKRGITFTVMIVGQSGSGRSTFINTLFGQQVVDTSTTILLPTDTSTEIDLQLREETVELEDDEGVKIQLNIIDTPGFGDSLDNSPSFEIISDYIRHQYDEILLEESRVRRNPRFKDGRVHAALYLINPTGHGLKEIDVEFIRQLGSLVNIIPVISKSDSLTRDELKLNKKLIMEDIDRWNLPIYNFPFDEDEISDEDYETNMYLRTLLPFAIIGSNEVYEMGGDVGTIRGRKYPWGILDVEDSSISDFVILRNALLISHLHDLKNYTHEILYERYRTCALSGESVAAESIRPNLTKLNGSSSSSTTTRRNTNPFKQSNNINNDVLNPASDMHGQSTGENNETYMTREEQIRLEEERLKAFEERVQQELLLKRQELLQREKELREIEARLEKEAKIKQEE
chain 2: MSAATATAAPVPPPVGISNLPNQRYKIVNEEGGTFTVMLAGESGLGKTTFINTLFQTVLKRADGQQHRQEPIRKTVEIDITRALLEEKHFELRVNVIDTPGFGDNVNNNKAWQPLVDFIDDQHDSYMRQEQQPYRTKKFDLRVHAVLYFIRPTGHGLKPIDIETMKRLSTRANLIPVIAKADTLTAQELQQFKSRIRQVIEAQEIRIFTPPLDADSKEDAKSGSNPDSAAVEHARQLIEAMPFAIVGSEKKFDNGQGTQVVARKYPWGLVEIENDSHSDFRKLRALLLRTYLLDLISTTQEMHYETYRRLRLEGHENTGEGNEDFTLPAIAPARKLSHNPRYKEEENALKKYFTDQVKAEEQRFRQWEQNIVNERIRLNGDLEEIQGKVKKLEEQVKSLQVKKSHLK
chain 3: MSLKEEQVSIKQDPEQEERQHDQFNDVQIKQESQDHDGVDSQYTNGTQNDDSERFEAAESDVKVEPGLGMGITSSQSEKGQVLPDQPEIKFIRRQINGYVGFANLPKQWHRRSIKNGFSFNLLVVGPDGIGKTTLMKTLFNNDDIEANLVKDYEEELANDQEEEEGQGEGHENQSQEQRHKVKIKSYESVIEENGVKLNLNVIDTEGFGDFLNNDQKSWDPIIKEIDSRFDQYLDAENKINRHSINDKRIHAVLYFIEPTGHYLKPLDLKFMQSVYEKVNLIPVIAKSDILTDEEILSFKKTIMNQLIQSNIELFKPPIYSNDDAENSHLSERLFSSLPYAVIGSNDIVENYSGNQVRGRSYPWGVIEVDNDNHSDFNLLKNLLIKQFMEELKERTSKILYENYRSSKLAKLGIKQDNSVFKEFDPISKQQEEKTLHEAKLAKLEIEMKTVFQQKVSEKEKKLQKSETELFARHKEMKEKLTKQLKALEDKKKQLELSINSASPNVNHSPVPTKKKGFLR
chain 4: MDPLSSVQPASYVGFDTITNQIEHRLLKKGFQFNIMVVGQSGLGKSTLINTLFASHLIDSATGDDISALPVTKTTEMKISTHTLVEDRVRLNINVIDTPGFGDFIDNSKAWEPIVKYIKEQHSQYLRKELTAQRERFITDTRVHAILYFLQPNGKELSRLDVEALKRLTEIANVIPVIGKSDTLTLDERTEFRELIQNEFEKYNFKIYPYDSEELTDEELELNRSVRSIIPFAVVGSENEIEINGETFRGRKTRWSAINVEDINQSDFVYLREFLIRTHLQDLIETTSYIHYEGFRARQLIALKENANSRSSAHMSSNAIQR
modifications: Alexa Fluor 555 maleimide (donor) or Alexa Fluor 647 maleimide (acceptor) on C294 (E294C); 0.7-0.8 dye molecules per subunit
notes: intact CTE (residues 303-415) restored; Cdc12, S. cerevisiae mitotic septin, Cys-less variant; Cdc3, S. cerevisiae mitotic septin, Cys-less variant; Cdc10, S. cerevisiae mitotic septin, Cys-less variant; The same preparation was labelled separately with donor (AF555) or acceptor (AF647); both are written as this one molecule; also called Cdc11^AF555; Cdc11^AF647; source: E. coli NiCo21 (DE3), …
B1: the Kd in data set [1] was 0.0275 µM; in [2] it was 0.0388 µM; in data set [3], more than 0.1 µM; in [4], 0.0108 µM; in data set [5], 0.0202 µM; in data set [8], 0.0213 µM. The Kd was found to be 0.0345 µM in data set [9] and 0.0406 µM in data set [10]. The “ionic strength (KCl) at EC50 of the FRET signal” value was 198000 µM in [6] and 181000 µM in data set [7].
